Target: T1, His-tagged Arc, wild type, purified, Q9WV31
T1 chain: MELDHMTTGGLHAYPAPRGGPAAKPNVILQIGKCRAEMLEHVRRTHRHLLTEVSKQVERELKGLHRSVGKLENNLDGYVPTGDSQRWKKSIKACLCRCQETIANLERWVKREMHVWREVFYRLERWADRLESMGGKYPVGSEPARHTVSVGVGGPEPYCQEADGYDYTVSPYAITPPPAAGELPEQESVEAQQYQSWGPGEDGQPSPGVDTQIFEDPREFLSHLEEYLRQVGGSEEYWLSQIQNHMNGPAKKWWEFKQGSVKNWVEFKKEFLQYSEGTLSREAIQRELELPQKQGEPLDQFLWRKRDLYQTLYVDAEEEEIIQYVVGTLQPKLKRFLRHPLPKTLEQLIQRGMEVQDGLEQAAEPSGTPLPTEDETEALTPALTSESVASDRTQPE
Assay: SDS-PAGE under non-reducing conditions; purified His-Arc in SDS sample buffer without 2-mercaptoethanol, heated 5 min at 95°C; total protein stain and anti-Arc immunoblot
Settings: remark: other sources report otherwise

B1: His-tagged Arc, wild type, purified, Q9WV31 1-396 (natural protein)
chain: T1 chain
stoichiometry N: 2

Source: paper PMC10043188
